{
  "source": "paper PMC7864060",
  "about": "“The cation diffusion facilitator protein MamM's cytoplasmic domain exhibits metal-type dependent binding modes and discriminates against Mn^2+” (The Journal of Biological Chemistry, 2020)",
  "proteins": {"B1": {"name": "MamM CTD (cytoplasmic C-terminal domain of MamM, residues 215-318) (domain or fragment, UniProt V6F235 215-318, looked up)", "chain": "EAVQNRIVEAAERVPGVRGVIHLRARYVGQDIWADMIIGVDPENTVEQAHEICEAVQAAVCGKIRRIESLHVSAEAREIGDTTKPSFSDQPLSFDEVMLSKVDN", "notes": "MamM, cation diffusion facilitator iron transporter of magnetotactic bacteria, UniProt Q6NE57, C-terminal domain, residues 215-318; Homodimer in all crystal forms; also called WT MamM CTD; MamM's cytoplasmic domain"}, "B2": {"name": "spin-labeled C267S MamM CTD (domain or fragment, UniProt V6F235 215-318, looked up)", "chain": "B1 chain with C53S", "modifications": "MTSL spin label on Cys-275", "notes": "MamM, cation diffusion facilitator iron transporter of magnetotactic bacteria, UniProt Q6NE57, C-terminal domain, residues 215-318, with C267S; Only Cys-275 is left for labelling with MTSL; also called C267SSL; MamM CTD C267S"}},
  "key": {"[1]": {"target": "the molecule itself", "experiment": "crystal structure; MamM CTD 20 mg/ml co-crystallised with 3.375 mM CuSO4; 10 mM Tris pH 8.0, 150 mM NaCl, 5 mM β-mercaptoethanol; vapor diffusion, 293 K"}, "[2]": {"target": "the molecule itself", "experiment": "PELDOR (pulsed EPR) spectroscopy; four-pulse PELDOR at 50 K on MTSL-labelled C267S MamM CTD (250 or 500 µM in D2O, 30% glycerol-d8) incubated with 3- or 5-fold excess of Cd2+, Ni2+, Cu2+, Fe2+ or Mn2+; distance between the Cys-275 labels of the two protomers"}},
  "note": "Positions count from the first letter of the chain named. In names and notes the source's numbering stands.",
  "data": [
    {"protein": "B1", "values": [
      {"measurement": "binding result", "setting": "[1]", "result": "binds"}
    ]},
    {"protein": "B2", "values": [
      {"measurement": "binding result", "setting": "[2]", "result": "binds"}
    ]}
  ]
}
